Measurements from US10428140B2, “Anti-EphA4 antibody” (EISAI R&D MANAGEMENT CO., LTD., priority 2015, dated 2019).

T1: human EphA8 (Homo sapiens, UniProt P29322)
T1 construct: a protein of the extracellular region of each human Eph receptor fused with the SEAP protein and the His tag; made in house; host or cells: Expi293F cells (culture supernatant)
T1 sequence (P29322 28-542 limits assumed): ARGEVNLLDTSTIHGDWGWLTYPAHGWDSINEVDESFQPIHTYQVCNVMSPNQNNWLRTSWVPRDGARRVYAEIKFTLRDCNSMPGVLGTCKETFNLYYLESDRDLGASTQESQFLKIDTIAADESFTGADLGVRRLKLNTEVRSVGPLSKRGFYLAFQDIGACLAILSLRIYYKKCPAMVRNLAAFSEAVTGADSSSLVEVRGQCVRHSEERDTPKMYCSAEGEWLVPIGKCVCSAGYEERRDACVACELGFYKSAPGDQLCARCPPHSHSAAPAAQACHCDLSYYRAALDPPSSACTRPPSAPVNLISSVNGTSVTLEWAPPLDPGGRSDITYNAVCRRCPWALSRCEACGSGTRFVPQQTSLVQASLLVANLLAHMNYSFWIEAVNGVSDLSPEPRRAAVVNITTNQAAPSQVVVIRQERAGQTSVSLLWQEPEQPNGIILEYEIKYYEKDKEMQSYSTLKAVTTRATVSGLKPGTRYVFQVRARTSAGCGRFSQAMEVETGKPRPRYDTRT

T2: human EphB1 (Homo sapiens, UniProt P54762)
T2 construct: a protein of the extracellular region of each human Eph receptor fused with the SEAP protein and the His tag; made in house; host or cells: Expi293F cells (culture supernatant)
T2 sequence (P54762 18-540 limits assumed): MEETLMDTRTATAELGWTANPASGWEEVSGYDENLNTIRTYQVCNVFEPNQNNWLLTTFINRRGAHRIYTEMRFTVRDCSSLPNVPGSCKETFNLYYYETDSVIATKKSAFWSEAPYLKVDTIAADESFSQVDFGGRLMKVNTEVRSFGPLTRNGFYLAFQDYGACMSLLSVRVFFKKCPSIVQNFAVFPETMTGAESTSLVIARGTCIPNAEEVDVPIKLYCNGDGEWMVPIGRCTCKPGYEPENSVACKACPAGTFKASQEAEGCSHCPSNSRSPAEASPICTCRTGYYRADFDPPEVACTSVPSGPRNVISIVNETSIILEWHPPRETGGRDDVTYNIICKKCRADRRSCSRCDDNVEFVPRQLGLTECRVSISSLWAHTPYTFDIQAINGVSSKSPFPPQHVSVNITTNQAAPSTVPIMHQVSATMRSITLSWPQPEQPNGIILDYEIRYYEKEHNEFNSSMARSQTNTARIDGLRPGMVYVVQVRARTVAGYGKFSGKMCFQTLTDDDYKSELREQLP

T3: human EphB6 (Homo sapiens, UniProt O15197)
T3 construct: a protein of the extracellular region of each human Eph receptor fused with the SEAP protein and the His tag; made in house; host or cells: Expi293F cells
T3 sequence (O15197 32-594 limits assumed): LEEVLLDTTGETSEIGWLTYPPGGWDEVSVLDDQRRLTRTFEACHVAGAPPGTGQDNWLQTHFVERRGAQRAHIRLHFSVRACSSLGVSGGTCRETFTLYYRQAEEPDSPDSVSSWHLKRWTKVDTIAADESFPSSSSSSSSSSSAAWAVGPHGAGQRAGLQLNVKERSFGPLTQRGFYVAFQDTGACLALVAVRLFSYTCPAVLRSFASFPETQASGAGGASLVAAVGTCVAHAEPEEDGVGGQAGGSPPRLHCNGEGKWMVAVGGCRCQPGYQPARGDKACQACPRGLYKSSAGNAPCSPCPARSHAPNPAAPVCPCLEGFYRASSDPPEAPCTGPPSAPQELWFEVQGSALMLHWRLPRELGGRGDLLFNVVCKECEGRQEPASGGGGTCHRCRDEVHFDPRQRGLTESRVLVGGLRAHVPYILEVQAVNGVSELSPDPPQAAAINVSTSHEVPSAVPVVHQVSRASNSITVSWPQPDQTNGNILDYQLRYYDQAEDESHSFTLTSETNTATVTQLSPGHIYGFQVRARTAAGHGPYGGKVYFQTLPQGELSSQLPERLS


Assays:
Experiment in all cases: Selectivity ELISA of humanized antibodies for human Eph receptor
Assay type in all cases: binding
Conditions in all cases: coated protein 1 nM
[1] = target: T4, human EphA5 (Homo sapiens, UniProt P54756)
T4 construct: a protein of the extracellular region of each human Eph receptor fused with the SEAP protein and the His tag; made in house; host or cells: Expi293F cells (culture supernatant)
Excerpt: (§1) According to the method described in Example 7, a DNA sequence encoding the signal sequence and the extracellular region of each human Eph receptor (EphA1, EphA2, EphA3, EphA4, EphA5, EphA6, EphA7, EphA8, EphA10, EphB1, EphB2, EphB3, EphB4, and EphB6) was amplified by RT-PCR using tissue-derived total RNA and cloned into a pENTR1A vector (Invitrogen/Life Technologies) having a DNA sequence encoding SEAP protein and histidine tag. Next, the DNA sequence encoding the signal sequence and the extracellular region of each human Eph receptor, SEAP protein, and histidine tag was transferred to a pcDNA3.1_rfcB vector through LR reaction using Gateway System (Invitrogen/Life Technologies) to construct a vector for the expression of a protein of the extracellular region of each human Eph receptor fused with the SEAP protein and the His tag (referred to as “Eph receptor extracellular region-SEAP-His protein”) (this vector is referred to as “Eph receptor extracellular region-SEAP-His protein expression vector”).
(§2) Next, each human Eph receptor extracellular region-SEAP-His protein expression vector was transferred to Expi293F cells (Gibco/Thermo Fisher Scientific) using Expi293 expression system (Gibco/Thermo Fisher Scientific). After incubation (5% CO2, 37° C.) for 5 days, the culture supernatant was recovered and centrifuged at 1500 rpm at room temperature for 5 minutes. The centrifugation supernatant was filtered through a 0.45-μm filter (Merck Millipore).
(§3) Each anti-EphA4 monoclonal humanized antibody obtained in Example 16 was evaluated for its binding activity against each human Eph receptor according to the following steps.
(§4) Each well of a 96-well plate (Nunc) was coated with a rabbit anti-6-His antibody (Bethyl Laboratories). Each well was […] After washing with 0.05% Tween 20/PBS (Nacalai Tesque) three times, the SEAP-His protein of human EphA1, EphA2, EphA3, EphA4, EphA5, EphA6, EphA7, EphA8, EphA10, EphB1, EphB2, EphB3, EphB4, or EphB6 was added (final concentration: 1 nM) to each well and incubated at room temperature for 1 hour. After washing three times, the humanized antibody was added to each well and incubated at room temperature for 1 hour. After washing three times, a horseradish peroxidase-labeled donkey […] IgG antibody (Jackson ImmunoResearch Laboratories) was added thereto and incubated at room temperature for 1 hour. After washing three times, TMB Microwell Peroxidase Substrate System (Kirkegaard & Perry Laboratories (KPL)) was added to each well. After confirmation of moderate color development, an equal amount of a reaction stopping solution (1N H2SO4, Wako Pure Chemical Industries) was added to each well. The absorbance at 450 nm was read using a microplate reader (Thermo Fisher Scientific).

[2] = target: T1, human EphA8
Excerpt: as §1, §2, §3, §4

[3] = target: T2, human EphB1
Excerpt: as §1, §2, §3, §4

[4] = target: T3, human EphB6
Excerpt: as §1, §2, §3, §4

T4 sequence (P54756 25-573 limits assumed): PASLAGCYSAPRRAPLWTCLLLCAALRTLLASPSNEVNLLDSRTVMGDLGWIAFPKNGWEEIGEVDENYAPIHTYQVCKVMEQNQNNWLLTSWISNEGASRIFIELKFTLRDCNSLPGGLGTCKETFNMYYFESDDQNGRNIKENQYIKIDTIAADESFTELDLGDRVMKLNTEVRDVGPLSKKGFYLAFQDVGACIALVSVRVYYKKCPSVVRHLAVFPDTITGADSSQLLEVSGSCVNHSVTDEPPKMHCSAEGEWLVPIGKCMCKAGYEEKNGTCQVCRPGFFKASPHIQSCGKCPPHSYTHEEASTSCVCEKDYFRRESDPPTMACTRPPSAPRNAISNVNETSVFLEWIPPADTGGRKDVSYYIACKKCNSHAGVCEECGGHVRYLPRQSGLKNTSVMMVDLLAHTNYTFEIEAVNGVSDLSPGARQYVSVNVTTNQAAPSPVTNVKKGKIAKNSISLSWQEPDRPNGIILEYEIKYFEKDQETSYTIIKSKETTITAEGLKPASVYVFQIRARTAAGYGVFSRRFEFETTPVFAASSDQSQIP

Molecule	hEphA5-SEAP-: absorbance at 450 nm, percentage with respect to hEphA4-SEAP-His as 100% [1] [%]	hEphA8-SEAP-: absorbance at 450 nm, percentage with respect to hEphA4-SEAP-His as 100% [2] [%]	hEphB1-SEAP-: absorbance at 450 nm, percentage with respect to hEphA4-SEAP-His as 100% [3] [%]	hEphB6-SEAP-: absorbance at 450 nm, percentage with respect to hEphA4-SEAP-His as 100% [4] [%]
69 (antibody, V domains shown, synthetic humanized antibody heavy chain variable region sequence; synthetic humanized antibody light chain variable region sequence) VH: QIQLVQSGSELKKPGASVKVSCKASGYTFTDYSMHWVRQAPGQGLKWMGWINTETGEPTYADDFKGRFVFSLDTSVSTAYLQISSLKAEDTAVYYCARIPLYYYGSRYWYFDVWGQGTTVTVSS VL: DIQMTQSPSSLSASVGDRVTITCRASENIYRNLAWYQQKPGKAPKLLVYAATNLADGVPSRFSGSGSGTDYTLTISSLQPEDFATYYCQHFWGTPWTFGQGTKVEIK	5.6	5.5	5.6	5.6
81 (antibody, V domains shown, constant regions without entry; synthetic humanized antibody light chain variable region sequence; synthetic humanized antibody heavy chain variable region sequence) VL: DIQMTQSPSSLSASVGDRVTITCRASENIYRNLAWYQQKPGKAPKLLLYAATNLADGVPSRFSGSGSGTDYTLTISSLQSEDFATYYCQHFWGTPWTFGQGTKVEIK VH: QVQLVQSGSELKKPGASVKVSCKASGYTFTDYSMHWVRQAPGQGLEWMGWINTETGEPTYAQGFTGRFVFSLDTSVSTAYLQISSLKAEDTAVYYCARIPLYYYGSRYWYFDVWGQGTTVTVSS	4.9	5.2	4.9	5.0
83 (antibody, V domains shown, constant regions without entry; synthetic humanized antibody light chain variable region sequence; synthetic humanized antibody heavy chain variable region sequence) VL: DIQMTQSPSSLSASVGDRVTITCRASENIYRNLAWYQQKPGKAPKLLLYAATNLADGVPSRFSGSGSGTDYTLTISSLQSEDFATYYCQHFWGTPWTFGQGTKVEIK VH: QIQLVQSGSELKKPGASVKVSCKASGYTFTDYSMHWVRQAPGQGLKWMGWINTETGEPTYAQGFTGRFVFSLDTSVSTAYLQISSLKAEDTAVYYCARIPLYYYGSRYWYFDVWGQGTTVTVSS	5.8	6.0	5.6	5.8

Now from value to molecule:

hEphA5-SEAP-: absorbance at 450 nm, percentage with respect to hEphA4-SEAP-His as 100% [1] [%]	hEphA8-SEAP-: absorbance at 450 nm, percentage with respect to hEphA4-SEAP-His as 100% [2] [%]	hEphB1-SEAP-: absorbance at 450 nm, percentage with respect to hEphA4-SEAP-His as 100% [3] [%]	hEphB6-SEAP-: absorbance at 450 nm, percentage with respect to hEphA4-SEAP-His as 100% [4] [%]	Molecule
6.5	5.8	5.4	5.5	82 (antibody, V domains shown, constant regions without entry; synthetic humanized antibody light chain variable region sequence; synthetic humanized antibody heavy chain variable region sequence) VL: DIQMTQSPSSLSASVGDRVTITCRASENIYRNLAWYQQKPGKAPKLLLYAATNLADGVPSRFSGSGSGTDYTLTISSLQSEDFATYYCQHFWGTPWTFGQGTKVEIK VH: QVQLVQSGSELKKPGASVKVSCKASGYTFTDYSMHWVRQAPGQGLKWMGWINTETGEPTYAQGFTGRFVFSLDTSVSTAYLQISSLKAEDTAVYYCARIPLYYYGSRYWYFDVWGQGTTVTVSS
5.0	5.3	5.2	4.9	84 (antibody, V domains shown, constant regions without entry; synthetic humanized antibody light chain variable region sequence; synthetic humanized antibody heavy chain variable region sequence) VL: DIQMTQSPSSLSASVGDRVTITCRASENIYRNLAWYQQKPGKAPKLLLYAATNLADGVPSRFSGSGSGTDYTLTISSLQSEDFATYYCQHFWGTPWTFGQGTKVEIK VH: QVQLVQSGSELKKPGASVKVSCKASGYTFTDYSMHWVRQAPGQGLEWMGWINTETGEPTYADDFKGRFVFSLDTSVSTAYLQISSLKAEDTAVYYCARIPLYYYGSRYWYFDVWGQGTTVTVSS
